Drawing on US20100196398A1, this text covers EC50 for 1 substance.

This assay concerns the target human CD105 (human) (UniProt P17813). As to the kind of experiment: FACS titration of FITC-labeled SN6 on HUVEC cells.

Chain of human CD105 (human) (P17813 26-658): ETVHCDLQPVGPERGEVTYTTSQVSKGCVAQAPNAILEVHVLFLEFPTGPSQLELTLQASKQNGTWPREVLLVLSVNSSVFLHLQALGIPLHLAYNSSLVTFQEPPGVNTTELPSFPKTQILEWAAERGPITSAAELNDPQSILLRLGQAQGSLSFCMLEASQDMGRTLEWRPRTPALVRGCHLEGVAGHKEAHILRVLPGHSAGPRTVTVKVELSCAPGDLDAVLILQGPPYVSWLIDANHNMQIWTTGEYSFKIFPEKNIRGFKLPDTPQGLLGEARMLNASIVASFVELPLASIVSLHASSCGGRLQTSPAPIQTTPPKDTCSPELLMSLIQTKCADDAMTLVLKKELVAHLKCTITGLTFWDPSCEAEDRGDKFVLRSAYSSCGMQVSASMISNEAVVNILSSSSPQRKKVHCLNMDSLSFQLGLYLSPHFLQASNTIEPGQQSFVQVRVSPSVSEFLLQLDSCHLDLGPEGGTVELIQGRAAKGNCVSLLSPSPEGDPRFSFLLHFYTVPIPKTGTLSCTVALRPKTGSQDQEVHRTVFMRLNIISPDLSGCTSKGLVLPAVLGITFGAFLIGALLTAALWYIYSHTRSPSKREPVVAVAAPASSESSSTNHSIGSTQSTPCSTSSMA

In the case of SN6 antibody (Abcam), the concentration for a half-maximal effect (EC50) is 2 µg/mL.
